# Assay results taken from PMC9060465, “Structural determinants of dual incretin receptor agonism by tirzepatide” (Proceedings of the National Academy of Sciences of the …, 2022).
# pKd, pKi: −log10 of the molar value.
# Tests used:
# [1] = target: isolated extracellular domain (ECD) of human GIPR, amino acids 26 to 138 (human) (UniProt P48546); assay: SPR
# [2] = target: human GLP-1R expressed in HEK293 cells (human) (UniProt P43220); assay: radioligand binding
# [3] = target: mouse GLP-1R, endogenous in pancreatic islets (mouse (endogenous in pancreatic islets)) (UniProt O35659)
# mouse GLP-1R, endogenous in pancreatic islets (mouse (endogenous in pancreatic islets)), sequence (O35659 22-463): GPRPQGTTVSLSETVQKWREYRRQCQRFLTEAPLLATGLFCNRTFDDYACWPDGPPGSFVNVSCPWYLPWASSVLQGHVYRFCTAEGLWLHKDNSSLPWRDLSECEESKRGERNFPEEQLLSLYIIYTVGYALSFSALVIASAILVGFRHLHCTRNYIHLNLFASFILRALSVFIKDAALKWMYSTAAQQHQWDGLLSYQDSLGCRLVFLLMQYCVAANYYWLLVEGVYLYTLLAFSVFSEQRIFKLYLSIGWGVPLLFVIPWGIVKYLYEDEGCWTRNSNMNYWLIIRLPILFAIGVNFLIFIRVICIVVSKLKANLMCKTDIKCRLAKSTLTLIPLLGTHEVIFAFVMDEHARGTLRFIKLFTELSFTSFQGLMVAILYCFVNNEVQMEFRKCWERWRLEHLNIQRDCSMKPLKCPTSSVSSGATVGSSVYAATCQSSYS
# [4] = target: human GLP-1R expressed in HEK293 cells (human) (UniProt P43220); settings: ligand
# [5] = target: isolated extracellular domain (ECD) of human GLP-1R, amino acids 24 to 145 (human) (UniProt P43220); assay: SPR
# isolated extracellular domain (ECD) of human GLP-1R, amino acids 24 to 145 (human), sequence (P43220 24-145): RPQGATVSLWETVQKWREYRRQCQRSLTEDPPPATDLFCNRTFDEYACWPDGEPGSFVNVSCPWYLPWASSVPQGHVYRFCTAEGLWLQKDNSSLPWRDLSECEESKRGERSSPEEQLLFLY
# [6] = target: human GIPR expressed in HEK293 cells (human) (UniProt P48546); assay: radioligand binding
# human GIPR expressed in HEK293 cells (human), sequence (P48546 22-466): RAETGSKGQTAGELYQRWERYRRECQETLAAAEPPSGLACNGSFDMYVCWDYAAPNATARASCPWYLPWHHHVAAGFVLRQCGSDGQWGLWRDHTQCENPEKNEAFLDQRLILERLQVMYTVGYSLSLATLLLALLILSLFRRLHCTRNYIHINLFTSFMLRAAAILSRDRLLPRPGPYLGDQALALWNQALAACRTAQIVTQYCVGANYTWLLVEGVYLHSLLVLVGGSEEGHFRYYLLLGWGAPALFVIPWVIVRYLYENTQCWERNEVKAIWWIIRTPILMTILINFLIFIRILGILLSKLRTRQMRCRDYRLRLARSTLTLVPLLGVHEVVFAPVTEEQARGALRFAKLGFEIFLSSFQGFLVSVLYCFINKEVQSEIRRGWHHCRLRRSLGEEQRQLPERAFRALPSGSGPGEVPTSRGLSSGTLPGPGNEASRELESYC
# human GLP-1R expressed in HEK293 cells (human), sequence (P43220 24-463): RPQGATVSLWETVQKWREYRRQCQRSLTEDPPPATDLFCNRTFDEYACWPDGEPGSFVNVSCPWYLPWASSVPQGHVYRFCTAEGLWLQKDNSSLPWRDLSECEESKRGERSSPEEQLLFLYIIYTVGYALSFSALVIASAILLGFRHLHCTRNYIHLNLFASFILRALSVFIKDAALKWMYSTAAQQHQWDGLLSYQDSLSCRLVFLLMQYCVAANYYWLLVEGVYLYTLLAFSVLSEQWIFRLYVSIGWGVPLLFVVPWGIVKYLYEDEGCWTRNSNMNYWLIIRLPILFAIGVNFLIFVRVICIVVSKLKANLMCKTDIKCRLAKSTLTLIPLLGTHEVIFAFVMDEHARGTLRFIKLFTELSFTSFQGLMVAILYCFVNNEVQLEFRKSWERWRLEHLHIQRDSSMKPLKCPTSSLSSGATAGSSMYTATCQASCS
# isolated extracellular domain (ECD) of human GIPR, amino acids 26 to 138 (human), sequence (P48546 26-138): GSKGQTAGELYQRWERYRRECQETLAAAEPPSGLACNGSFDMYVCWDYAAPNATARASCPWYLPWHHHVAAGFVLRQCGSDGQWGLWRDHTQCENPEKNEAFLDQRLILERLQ
Substance,pKd [1],other [2],"intracellular fluorescence intensity of islet cells from wild-type mice, 30 nM labelled ligand for 30 min, confocal microscopy; negligible (≤4.0) after exendin-4(9-39) or in Glp-1r null islets [3]",further results
tirzepatide (LY3298176) (peptide),5.38,5 fold,–,–
"tirzepatide^ΔC20,Y1H-AF647 (peptide)",–,–,85.3,–
glucagon-like peptide-1 (GLP-1),–,–,–,pKi [4]: 9.23
tirzepatide analog lacking the lipid moiety (TZP^ΔC20) (peptide),5.77,5 fold,–,pKd [5]: 6.95; other [6]: 4 fold
tirzepatide^AF647 (peptide),–,–,46,–
GLP-1^AF647 (ligand),–,–,104,–
